In the supplement of paper PMC10065799, “High-throughput profiling of sequence recognition by tyrosine kinases and SH2 domains using bacterial peptide display” (eLife, 2023):

Legend:
c-Src SH2 = test: SH2 binding enrichment of the phosphorylated peptide, bacterial display (enrichment ratio); higher = better substrate or ligand; peptides without Tyr show the background
Grb2 SH2 = Grb2 SH2 (UniProt P62993); test: as above
SHP2-C SH2 = test: as above
Fer (mouse) = test: phosphorylation enrichment, bacterial display (enrichment ratio); higher = better substrate or ligand; peptides without Tyr show the background
FGFR3 = FGFR3 (UniProt P22607); test: as above
EPHB1 = EPHB1 (UniProt P54762); test: as above
MERTK = MERTK (UniProt Q12866); test: as above
Jak2 = Jak2 (UniProt O60674); test: as above
Fes = Fes (UniProt P07332); test: as above
AncSZ = test: as above
Hck = Hck (UniProt P08631); test: as above
c-Abl (mouse) = test: as above
c-Src = test: as above
EPHB2 = EPHB2 (UniProt P29323); test: as above
Fyn = Fyn (UniProt P06241); test: as above
FGFR1 = FGFR1 (UniProt P11362); test: as above
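For SH2 binding enrichment of the phosphorylated peptide, bacterial display in this document: peptide library displayed on the E. coli surface as eCPX fusions, selected cells deep-sequenced, score is each peptide's frequency after selection divided by its frequency in the input.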
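For phosphorylation enrichment, bacterial display in this document: 11-residue human phosphosite peptides and single-mutation variants displayed on the E. coli surface, counted by deep sequencing, each peptide's frequency after selection divided by its frequency in the unselected input library; frequency after pTyr selection over input frequency; kinase dosed for 20-30% of maximal phosphorylation in three min.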

FGFR3, sequence (P22607 whole entry, looked up): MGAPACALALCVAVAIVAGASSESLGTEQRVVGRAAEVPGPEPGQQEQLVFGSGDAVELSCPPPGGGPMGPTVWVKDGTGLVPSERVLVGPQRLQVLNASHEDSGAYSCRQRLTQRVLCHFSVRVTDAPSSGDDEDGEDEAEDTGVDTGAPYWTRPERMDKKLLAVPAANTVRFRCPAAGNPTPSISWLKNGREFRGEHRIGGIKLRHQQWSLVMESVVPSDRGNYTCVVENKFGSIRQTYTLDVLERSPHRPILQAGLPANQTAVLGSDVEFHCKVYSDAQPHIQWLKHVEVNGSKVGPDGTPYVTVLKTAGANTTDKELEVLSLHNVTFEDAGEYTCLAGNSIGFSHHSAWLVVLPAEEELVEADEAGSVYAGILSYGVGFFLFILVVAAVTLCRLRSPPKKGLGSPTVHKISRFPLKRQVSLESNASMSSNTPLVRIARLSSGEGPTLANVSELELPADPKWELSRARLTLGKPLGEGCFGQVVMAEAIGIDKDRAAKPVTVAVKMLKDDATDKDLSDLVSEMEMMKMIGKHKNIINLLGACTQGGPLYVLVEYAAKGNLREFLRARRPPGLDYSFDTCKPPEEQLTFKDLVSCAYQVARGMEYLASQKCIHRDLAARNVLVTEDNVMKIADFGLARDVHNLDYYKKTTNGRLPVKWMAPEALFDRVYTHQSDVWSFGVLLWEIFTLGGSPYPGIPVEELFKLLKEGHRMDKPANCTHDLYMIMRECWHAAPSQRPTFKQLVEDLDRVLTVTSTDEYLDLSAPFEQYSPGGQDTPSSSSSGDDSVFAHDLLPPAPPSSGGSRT
EPHB1, sequence (P54762 whole entry, looked up): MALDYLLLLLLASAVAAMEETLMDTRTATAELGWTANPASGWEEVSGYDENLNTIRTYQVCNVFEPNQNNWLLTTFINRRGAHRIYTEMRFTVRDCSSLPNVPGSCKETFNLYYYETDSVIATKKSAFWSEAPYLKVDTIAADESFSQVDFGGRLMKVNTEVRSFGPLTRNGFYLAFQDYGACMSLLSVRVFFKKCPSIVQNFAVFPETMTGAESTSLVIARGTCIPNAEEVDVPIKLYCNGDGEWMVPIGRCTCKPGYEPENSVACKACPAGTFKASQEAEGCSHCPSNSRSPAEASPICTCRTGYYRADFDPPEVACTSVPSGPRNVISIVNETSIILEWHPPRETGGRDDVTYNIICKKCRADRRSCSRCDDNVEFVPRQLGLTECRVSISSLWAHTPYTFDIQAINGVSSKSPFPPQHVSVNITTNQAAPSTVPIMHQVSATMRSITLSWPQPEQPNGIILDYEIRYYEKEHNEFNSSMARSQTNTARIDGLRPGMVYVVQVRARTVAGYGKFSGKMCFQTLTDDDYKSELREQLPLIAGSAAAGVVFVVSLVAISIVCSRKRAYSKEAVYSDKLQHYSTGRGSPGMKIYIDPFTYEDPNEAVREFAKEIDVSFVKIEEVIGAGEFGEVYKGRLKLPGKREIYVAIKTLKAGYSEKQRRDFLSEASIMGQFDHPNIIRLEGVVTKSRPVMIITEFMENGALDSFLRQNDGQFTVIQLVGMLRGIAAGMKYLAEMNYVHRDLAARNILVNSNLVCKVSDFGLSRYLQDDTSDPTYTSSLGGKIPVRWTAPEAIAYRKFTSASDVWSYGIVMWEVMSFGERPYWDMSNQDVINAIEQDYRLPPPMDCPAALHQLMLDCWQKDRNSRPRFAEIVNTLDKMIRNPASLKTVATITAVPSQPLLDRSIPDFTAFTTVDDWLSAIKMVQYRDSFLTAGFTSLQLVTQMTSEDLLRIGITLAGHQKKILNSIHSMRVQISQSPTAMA
FGFR1, sequence (P11362 whole entry, looked up, the tested form may be a part): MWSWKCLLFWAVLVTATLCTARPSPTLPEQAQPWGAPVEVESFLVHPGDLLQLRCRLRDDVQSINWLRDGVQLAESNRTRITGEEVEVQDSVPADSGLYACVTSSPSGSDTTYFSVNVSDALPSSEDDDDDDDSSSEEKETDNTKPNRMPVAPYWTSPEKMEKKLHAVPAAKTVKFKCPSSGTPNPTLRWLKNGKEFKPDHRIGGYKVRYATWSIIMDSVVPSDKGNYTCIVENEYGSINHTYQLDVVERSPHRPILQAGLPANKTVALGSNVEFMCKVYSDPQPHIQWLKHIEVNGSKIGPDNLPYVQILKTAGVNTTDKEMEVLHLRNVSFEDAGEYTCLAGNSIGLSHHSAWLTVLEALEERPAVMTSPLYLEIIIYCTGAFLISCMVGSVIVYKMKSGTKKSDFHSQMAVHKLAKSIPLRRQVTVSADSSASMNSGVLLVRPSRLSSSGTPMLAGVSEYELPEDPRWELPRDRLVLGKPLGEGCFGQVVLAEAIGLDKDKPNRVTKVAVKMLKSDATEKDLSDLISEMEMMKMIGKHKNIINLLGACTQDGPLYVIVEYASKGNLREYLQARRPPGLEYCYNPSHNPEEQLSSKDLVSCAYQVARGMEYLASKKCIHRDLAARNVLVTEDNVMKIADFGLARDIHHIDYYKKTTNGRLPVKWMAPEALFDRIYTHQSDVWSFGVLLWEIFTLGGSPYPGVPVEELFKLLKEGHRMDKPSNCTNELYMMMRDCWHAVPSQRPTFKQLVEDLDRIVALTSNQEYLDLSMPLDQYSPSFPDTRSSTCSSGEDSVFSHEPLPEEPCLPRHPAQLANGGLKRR
Jak2, sequence (O60674 whole entry, looked up): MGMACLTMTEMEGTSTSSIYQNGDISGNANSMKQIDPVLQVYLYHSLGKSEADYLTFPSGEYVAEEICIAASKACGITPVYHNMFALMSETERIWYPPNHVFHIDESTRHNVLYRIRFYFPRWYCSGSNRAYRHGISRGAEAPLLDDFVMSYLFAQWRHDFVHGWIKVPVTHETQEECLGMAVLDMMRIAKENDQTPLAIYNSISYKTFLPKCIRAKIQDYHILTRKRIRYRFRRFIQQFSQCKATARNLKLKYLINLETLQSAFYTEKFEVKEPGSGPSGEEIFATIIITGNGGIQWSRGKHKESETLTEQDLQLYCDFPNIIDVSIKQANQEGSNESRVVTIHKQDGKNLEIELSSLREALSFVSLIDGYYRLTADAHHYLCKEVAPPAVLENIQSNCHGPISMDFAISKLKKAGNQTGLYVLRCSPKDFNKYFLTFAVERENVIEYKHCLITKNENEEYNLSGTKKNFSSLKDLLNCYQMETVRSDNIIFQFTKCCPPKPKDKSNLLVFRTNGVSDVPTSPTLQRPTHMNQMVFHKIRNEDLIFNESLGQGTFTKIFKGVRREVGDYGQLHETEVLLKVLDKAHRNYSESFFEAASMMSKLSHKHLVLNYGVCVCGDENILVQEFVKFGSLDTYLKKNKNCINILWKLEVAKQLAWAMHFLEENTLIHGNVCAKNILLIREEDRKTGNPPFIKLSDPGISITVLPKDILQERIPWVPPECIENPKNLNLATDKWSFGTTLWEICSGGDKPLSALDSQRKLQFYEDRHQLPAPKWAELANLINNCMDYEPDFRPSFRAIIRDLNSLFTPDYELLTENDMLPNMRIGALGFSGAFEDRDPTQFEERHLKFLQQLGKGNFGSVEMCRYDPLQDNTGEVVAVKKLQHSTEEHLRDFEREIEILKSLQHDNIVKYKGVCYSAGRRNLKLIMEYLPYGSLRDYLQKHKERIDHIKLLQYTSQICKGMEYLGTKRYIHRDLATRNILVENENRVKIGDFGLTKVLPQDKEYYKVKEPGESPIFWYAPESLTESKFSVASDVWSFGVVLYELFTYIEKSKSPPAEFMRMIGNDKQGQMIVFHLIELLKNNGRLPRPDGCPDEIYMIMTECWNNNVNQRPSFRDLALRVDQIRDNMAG
EPHB2, sequence (P29323 whole entry, looked up): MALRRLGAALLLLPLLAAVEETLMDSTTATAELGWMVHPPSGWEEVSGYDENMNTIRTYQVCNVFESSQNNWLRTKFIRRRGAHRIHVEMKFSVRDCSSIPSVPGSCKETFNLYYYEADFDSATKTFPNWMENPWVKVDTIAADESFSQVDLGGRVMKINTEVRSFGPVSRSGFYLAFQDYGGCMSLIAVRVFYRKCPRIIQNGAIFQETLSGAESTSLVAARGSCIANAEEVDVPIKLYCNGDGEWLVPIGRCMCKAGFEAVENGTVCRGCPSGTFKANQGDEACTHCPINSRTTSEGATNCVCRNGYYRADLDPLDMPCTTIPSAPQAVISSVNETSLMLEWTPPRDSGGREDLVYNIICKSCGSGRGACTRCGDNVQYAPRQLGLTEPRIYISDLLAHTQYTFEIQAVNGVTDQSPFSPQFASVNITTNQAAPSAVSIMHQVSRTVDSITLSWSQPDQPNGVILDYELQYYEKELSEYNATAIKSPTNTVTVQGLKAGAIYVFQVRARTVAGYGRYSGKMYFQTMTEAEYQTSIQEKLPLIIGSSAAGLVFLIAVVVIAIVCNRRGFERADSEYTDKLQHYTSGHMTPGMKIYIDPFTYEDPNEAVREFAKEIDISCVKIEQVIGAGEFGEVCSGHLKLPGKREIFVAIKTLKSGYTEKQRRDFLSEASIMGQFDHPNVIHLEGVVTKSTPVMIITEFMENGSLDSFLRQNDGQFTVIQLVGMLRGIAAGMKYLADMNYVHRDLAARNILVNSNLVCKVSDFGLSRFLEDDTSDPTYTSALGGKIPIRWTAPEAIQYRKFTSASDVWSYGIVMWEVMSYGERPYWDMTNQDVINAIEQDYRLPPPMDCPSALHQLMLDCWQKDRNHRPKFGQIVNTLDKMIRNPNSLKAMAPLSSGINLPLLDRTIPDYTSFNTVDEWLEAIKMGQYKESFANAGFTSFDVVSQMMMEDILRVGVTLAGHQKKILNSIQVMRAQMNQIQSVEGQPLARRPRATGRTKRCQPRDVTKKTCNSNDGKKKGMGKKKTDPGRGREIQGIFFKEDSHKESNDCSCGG

Row | Sequence | SH2 binding enrichment (c-Src SH2) | SH2 binding enrichment (Grb2 SH2) | SH2 binding enrichment (SHP2-C SH2) | phosphorylation enrichment (Fer (mouse)) | phosphorylation enrichment (FGFR3) | phosphorylation enrichment (EPHB1) | phosphorylation enrichment (MERTK) | phosphorylation enrichment (Jak2) | phosphorylation enrichment (Fes) | phosphorylation enrichment (AncSZ) | phosphorylation enrichment (Hck) | phosphorylation enrichment (c-Abl (mouse)) | phosphorylation enrichment (c-Src) | phosphorylation enrichment (EPHB2) | phosphorylation enrichment (Fyn) | phosphorylation enrichment (FGFR1)
1 | PSRKDYETYQP [CTNND2_Y1154] | 0.597 | 0.905 | 0.818 | 0.485 | 0.695 | 1.49 | 0.6 | 0.677 | 1.02 | 1.04 | 0.873 | 0.95 | 0.62 | 2.62 | 0.55 | 0.592
2 | LTERGYSFVTT [ACTA1_Y200] | 7.8 | 0.794 | 6.24 | 0.823 | 1.17 | 0.796 | 0.769 | 1.1 | 1.41 | 1.4 | 0.708 | 0.941 | 0.657 | 0.95 | 0.582 | 0.927
3 | YDGKDYIALNE [HLA-A_Y147] | 0.452 | 0.692 | 0.604 | 0.551 | 0.953 | 1.06 | 0.457 | 1.18 | 1.27 | 1.41 | 0.583 | 0.909 | 0.48 | 0.792 | 0.532 | 0.843
4 | EKKDVYKAGEQ [CFH_Y1008] | 0.596 | 0.954 | 0.549 | 0.624 | 0.482 | 0.336 | 0.425 | 0.555 | 0.675 | 1.08 | 0.386 | 0.475 | 0.394 | 0.643 | 0.404 | 0.434
5 | TARWEYMHSPS [CPOX_Y429] | 0.688 | 1.25 | 0.778 | 0.334 | 0.69 | 0.965 | 1.08 | 1.23 | 2.01 | 0.927 | 0.356 | 0.363 | 1.14 | 0.624 | 0.387 | 0.536
6 | KLPDAYERLIL [G6PD_Y437] | 2.48 | 0.949 | 0.723 | 0.634 | 0.561 | 0.545 | 0.522 | 0.591 | 0.944 | 0.756 | 0.582 | 0.796 | 0.542 | 0.49 | 0.491 | 0.992
7 | ALLTKYSHSSM [DSCC1_Y374] | 0.406 | 0.76 | 0.488 | 0.56 | 0.587 | 0.442 | 0.436 | 0.542 | 0.737 | 0.651 | 0.485 | 0.727 | 0.528 | 0.643 | 0.578 | 0.45
8 | LENQTYFKSFE [AKAP9_Y2482] | 0.569 | 0.978 | 0.518 | 0.67 | 0.903 | 1.24 | 0.81 | 1.13 | 1.33 | 1.59 | 1.22 | 0.872 | 0.579 | 1.24 | 1.08 | 0.956
9 | LERYIYNPEEF [HLA-DPB1_Y59_R61P] | 0.677 | 0.866 | 0.851 | 0.85 | 0.902 | 0.783 | 0.682 | 2.66 | 1.74 | 1.48 | 1.56 | 1.32 | 3.71 | 0.965 | 2.16 | 0.875
10 | HKLSYYEYDFE [BTK_Y40] | 3.4 | 1.05 | 0.941 | 0.64 | 4.03 | 2.02 | 3.67 | 1.6 | 2.13 | 1.86 | 0.952 | 1.26 | 2.48 | 1.38 | 2.13 | 7.25

Second part, led by results:

Row | SH2 binding enrichment (c-Src SH2) | SH2 binding enrichment (Grb2 SH2) | SH2 binding enrichment (SHP2-C SH2) | Sequence | phosphorylation enrichment (Fer (mouse)) | phosphorylation enrichment (FGFR3) | phosphorylation enrichment (EPHB1) | phosphorylation enrichment (MERTK) | phosphorylation enrichment (Jak2) | phosphorylation enrichment (Fes) | phosphorylation enrichment (AncSZ) | phosphorylation enrichment (Hck) | phosphorylation enrichment (c-Abl (mouse)) | phosphorylation enrichment (c-Src) | phosphorylation enrichment (EPHB2) | phosphorylation enrichment (Fyn) | phosphorylation enrichment (FGFR1)
11 | 0.837 | 8.54 | 0.611 | LHAAAYQNALA [UQCRC2_Y182_R183Q] | 0.427 | 0.476 | 0.433 | 0.4 | 0.646 | 0.715 | 1.01 | 0.45 | 0.495 | 0.393 | 0.423 | 0.474 | 0.512
12 | 0.584 | 1.06 | 0.878 | EEQKKYYNAVK [SCN5A_Y1494_M1498V] | 0.393 | 0.486 | 0.368 | 0.426 | 0.625 | 0.789 | 0.651 | 0.496 | 0.574 | 0.548 | 0.433 | 0.429 | 0.425
13 | 0.467 | 0.785 | 0.468 | MECLPYGSLRD [JAK2_Y934_Y931C] | 0.669 | 0.794 | 0.598 | 0.409 | 1.07 | 1.29 | 1.08 | 0.711 | 0.75 | 1.65 | 0.577 | 0.753 | 0.522
14 | 0.567 | 1.01 | 0.715 | RDMNAYISPSP [MMAA_Y207_R209S] | 0.66 | 0.508 | 0.553 | 0.451 | 0.879 | 1.03 | 0.505 | 0.323 | 0.671 | 0.416 | 0.477 | 0.365 | 0.432
15 | 0.698 | 0.891 | 0.696 | HKGASYAFRLS [PTPRD_Y891_V892A] | 0.645 | 1.11 | 0.935 | 0.525 | 0.827 | 0.962 | 1.06 | 0.49 | 0.846 | 0.785 | 0.581 | 0.838 | 0.66
16 | 1.19 | 0.804 | 0.633 | SYDLDYDSVQP [MYC_Y16_N11S] | 0.995 | 0.862 | 1.03 | 0.443 | 1.04 | 1.21 | 2.5 | 0.762 | 0.741 | 0.796 | 1.73 | 0.723 | 0.589
